Numbering of substitutions follows the chain as printed.
Molecular target: recombinant B7-H4 protein (Phe29 to Ala258) (Homo sapiens, UniProt Q7Z7D3)
Assay: ELISA

Sequence of recombinant B7-H4 protein (Phe29 to Ala258) (Q7Z7D3 29-258): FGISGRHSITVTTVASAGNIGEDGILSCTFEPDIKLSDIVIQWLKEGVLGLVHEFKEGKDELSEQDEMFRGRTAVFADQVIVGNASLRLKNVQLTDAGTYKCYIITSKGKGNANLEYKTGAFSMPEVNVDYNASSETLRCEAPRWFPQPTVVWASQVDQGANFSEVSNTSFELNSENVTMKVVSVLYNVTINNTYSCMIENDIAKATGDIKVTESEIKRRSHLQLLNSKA

B1: anti-B7-H4 scFv S2 (scFv, V domains shown)
VH: AVTLDESGGGLQTPGGGLSLVCKASGFTFSSYGMGWMRQVPGKGLEYVAVIDAGSGTWYATAVKGRATISRDNGQSTVRLQLNNLRAEDTATYYCAKSANAGAPDGAWIDAWGHGTEVIVSS
VL: LTQPSSVSANLGGTVEITCSGGSGGYGWFQQKSPGSAPVTLIYNNNKRPSDIPSRFSGSKSGSTATLTITGVRAEDEAVYYCGGWDSIDSGIFGAGTTLTVL
Work on B1 yielded an EC50 of ~22 nM.

B2: anti-B7-H4 scFv S4 (scFv, V domains shown)
VH: B1 VH with G17A
VL: LTQPSSVSANLGETVKITCSGGSYSYGWYQQKSPGSAPVTVIYDNNKRPSDIPSRFSGSKSGSTGTLTITGVQAEDEAIYYCGSRDSNTGYAAFGAGTTLTVL
B2 gave an EC50 of ~33 nM.

Reference: PMC8390317 (Experimental Animals, 2021)
